Assay results published in paper PMC13649712, “Role of PER-WDR5 interactions in the mammalian circadian clock” (Nature Communications, 2026).

Target: preformed PER1 1013-1291/WDR5 22-334 complex (mouse, UniProt O35973 1013-1291; P61965 22-334)
Experiment: SEC; PER1 1013-1291, CRY1 1-496 or CRY2 1-512 and WDR5 22-334: equimolar mixture (60 min, 4 °C) or PER1/WDR5 complex pre-formed overnight and then equimolar CRY added for 60 min; dimeric complexes run for comparison; S200 10/300; 25 mM HEPES pH 7.5, 300 mM NaCl, 5% glycerol, 1 mM DTT
Details: both partners purified

binding result	Binder
binds	mouse CRY1 1-496 (PHR) (domain or fragment, pCoofy27; tag-free after cleavage; also called CRY1-PHR) MGVNAVHWFRKGLRLHDNPALKECIQGADTIRCVYILDPWFAGSSNVGINRWRFLLQCLEDLDANLRKLNSRLFVIRGQPADVFPRLFKEWNITKLSIEYDSEPFGKERDAAIKKLATEAGVEVIVRISHTLYDLDKIIELNGGQPPLTYKRFQTLVSKMEPLEMPADTITSDVIGKCMTPLSDDHDEKYGVPSLEELGFDTDGLSSAVWPGGETEALTRLERHLERKAWVANFERPRMNANSLLASPTGLSPYLRFGCLSCRLFYFKLTDLYKKVKKNSSPPLSLYGQLLWREFFYTAATNNPRFDKMEGNPICVQIPWDKNPEALAKWAEGRTGFPWIDAIMTQLRQEGWIHHLARHAVACFLTRGDLWISWEEGMKVFEELLLDADWSINAGSWMWLSCSSFFQQFFHCYCPVGFGRRTDPNGDYIRRYLPVLRGFPAKYIYDPWNAPEGIQKVAKCLIGVNYPKPMVNHAEASRLNIERMKQIYQQLSRYRG
binds	mouse CRY2-PHR (1-512) (domain or fragment, Cryptochrome-2 (CRY2), mouse, photolyase homology region, residues 1-512; pCoofy27; tag-free after cleavage; also called CRY2 1-512) MAAAAVVAATVPAQSMGADGASSVHWFRKGLRLHDNPALLAAVRGARCVRCVYILDPWFAASSSVGINRWRFLLQSLEDLDTSLRKLNSRLFVVRGQPADVFPRLFKEWGVTRLTFEYDSEPFGKERDAAIMKMAKEAGVEVVTENSHTLYDLDRIIELNGQKPPLTYKRFQALISRMELPKKPAVAVSSQQMESCRAEIQENHDDTYGVPSLEELGFPTEGLGPAVWQGGETEALARLDKHLERKAWVANYERPRMNANSLLASPTGLSPYLRFGCLSCRLFYYRLWDLYKKVKRNSTPPLSLFGQLLWREFFYTAATNNPRFDRMEGNPICIQIPWDRNPEALAKWAEGKTGFPWIDAIMTQLRQEGWIHHLARHAVACFLTRGDLWVSWESGVRVFDELLLDADFSVNAGSWMWLSCSAFFQQFFHCYCPVGFGRRTDPSGDYIRRYLPKLKGFPSRYIYEPWNAPESVQKAAKCIIGVDYPRPIVNHAETSRLNIERMKQIYQQLSRY
